Laboratory results: US20200010571A1 (Janssen / Centocor, published 2020)

Experiments:
[1] = biological target: T1, human IL-17A (recombinant) (human, UniProt Q16552 24-155); experiment: cell-based or functional assay
cynomolgus IL-17A [2] = biological target: T2, cynomolgus IL-17A (cynomolgus, UniProt Q16552 24-155 (human entry), limits assumed); experiment: cell-based or functional assay
T2 chain: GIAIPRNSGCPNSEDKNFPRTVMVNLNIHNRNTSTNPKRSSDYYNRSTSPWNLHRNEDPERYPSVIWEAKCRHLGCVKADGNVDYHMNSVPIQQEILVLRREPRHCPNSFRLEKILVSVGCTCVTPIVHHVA

[3] = biological target: T3, recombinant human IL-17A/F heterodimer (human, UniProt Q16552 24-155; Q96PD4 31-163); experiment: cell-based or functional assay
[4] = biological target: T1, human IL-17A (recombinant); experiment: cell-based or functional assay; remark: listed apart in the source
[5] = biological target: T1, human IL-17A (recombinant); experiment: competition ELISA: biotinylated rhIL-17A binding to plate-coated rhIL-17RA-Fc; Experiment 3; 95% CI 0.07179-0.08047
[6] = biological target: T1, human IL-17A (recombinant); experiment: cell-based or functional assay; remark: listed apart in the source
cynomolgus IL-17A [7] = biological target: T2, cynomolgus IL-17A; experiment: cell-based or functional assay
[8] = biological target: T3, recombinant human IL-17A/F heterodimer; experiment: cell-based or functional assay; remark: listed apart in the source
[9] = biological target: T1, human IL-17A (recombinant); experiment: competition ELISA: biotinylated rhIL-17A binding to plate-coated rhIL-17RA-Fc; Experiment 1; 95% CI 0.03759-0.04316
[10] = biological target: T1, human IL-17A (recombinant); experiment: cell-based or functional assay; remark: listed apart in the source
[11] = biological target: T1, human IL-17A (recombinant); experiment: competition ELISA: biotinylated rhIL-17A binding to plate-coated rhIL-17RA-Fc; Experiment 2; 95% CI 0.04003-0.04542

B1: mAb 4782 (parental anti-IL-17A antibody, IgG1, F405L) (antibody)
heavy: not shown
light: QSVLTQPPSVSVAPGQTARISCSGDNLGDKYANWYQQKPGQAPVLVIYDDIDRPSGIPERFSGSNSGNTATLTISGTQAEDEADYYCGSYDFFLGMIVFGGGTKLTVLGQPKAAPSVTLFPPSSEELQANKATLVCLISDFYPGAVTVAWKADSSPVKAGVETTTPSKQSNNKYAASSYLSLTPEQWKSHRSYSCQVTHEGSTVEKTVAPTECS
B1 was tested. Which “IC50 (µg/mL); Inhibition of native IL-17A mediated GROα production by NHDF; Experiment 1” value [1] did it give?
The value was 0.0207 µg/mL.

And the “IC50 (µg/mL); Inhibition of native IL-17A mediated GROα production by NHDF; Experiment 2” value [1]?
Its value is 0.0327 µg/mL.

What about the “IC50 (µg/mL); Inhibition of native IL-17A mediated GROα production by NHDF; Experiment 3” value [1] of the same binder?
The value was 0.0236 µg/mL.

What about the “IC50 (µg/mL); Inhibition of cyno IL-17A mediated IL-6 production by NHDF; Experiment 2” value (cynomolgus IL-17A [2]) of the same binder?
The value was 0.0437 µg/mL.

And the “IC50 (µg/mL); Inhibition of cyno IL-17A mediated IL-6 production by NHDF; Experiment 3” value (cynomolgus IL-17A [2])?
Its value is 0.0248 µg/mL.

And the “IC50 (µg/mL); Inhibition of IL-17A/F mediated IL-6 production by NHDF; Experiment 1” value [3]?
Its value is 0.714 µg/mL.

And the “IC50 (µg/mL); Inhibition of IL-17A/F mediated IL-6 production by NHDF; Experiment 2” value [3]?
The value was 0.243 µg/mL.

And the “IC50 (µg/mL); Inhibition of IL-17A/F mediated IL-6 production by NHDF; Experiment 3” value [3]?
Its value is 0.99 µg/mL.

What about the “IC50 (nM); Inhibition of rhTNF-α and IL-17 induced IL-6 secretion from RA-FLSs; Donor 1 (ST1320)” value [4] of the same binder?
Its value is 0.34 nM.

And the “IC50 (nM); Inhibition of rhTNF-α and IL-17 induced IL-6 secretion from RA-FLSs; Donor 2 (ST1349)” value [4]?
The value was 0.22 nM.

And the “IC50 (nM); Inhibition of rhTNF-α and IL-17 induced IL-6 secretion from RA-FLSs; Donor 3 (ST1359)” value [4]?
Its value is 0.25 nM.

And the IC50 [5]?
Its IC50 is 0.076 µg/mL.

What about the “IC50 (nM); Inhibition of rhTNF-α and IL-17A induced GROα secretion from RA-FLSs from three donors; Donor 1 (ST1320)” value [6] of the same binder?
Its value is 0.25 nM.

What about the “IC50 (nM); Inhibition of rhTNF-α and IL-17A induced GROα secretion from RA-FLSs from three donors; Donor 2 (ST1349)” value [6] of the same binder?
The value was 0.12 nM.

And the “IC50 (nM); Inhibition of rhTNF-α and IL-17A induced GROα secretion from RA-FLSs from three donors; Donor 3 (ST1359)” value [6]?
The value was 0.14 nM.

What about the “IC50 (µg/mL); Inhibition of cyno IL-17A mediated GROα production by NHDF; Experiment 1” value (cynomolgus IL-17A [7]) of the same binder?
The value was 0.0235 µg/mL.

What about the “IC50 (µg/mL); Inhibition of cyno IL-17A mediated GROα production by NHDF; Experiment 2” value (cynomolgus IL-17A [7]) of the same binder?
Its value is 0.0466 µg/mL.

What about the “IC50 (µg/mL); Inhibition of cyno IL-17A mediated GROα production by NHDF; Experiment 3” value (cynomolgus IL-17A [7]) of the same binder?
The value was 0.0349 µg/mL.

And the “IC50 (µg/mL); Inhibition of IL-17A/F mediated GROα production by NHDF; Experiment 1” value [8]?
Its value is 0.473 µg/mL.

And the “IC50 (µg/mL); Inhibition of IL-17A/F mediated GROα production by NHDF; Experiment 2” value [8]?
The value was 0.117 µg/mL.

What about the “IC50 (µg/mL); Inhibition of IL-17A/F mediated GROα production by NHDF; Experiment 3” value [8] of the same binder?
The value was 0.317 µg/mL.

What about the IC50 [9] of the same binder?
The IC50 was 0.0403 µg/mL.

And the “IC50 (µg/mL); Inhibition of native IL-17A mediated IL-6 production by NHDF; Experiment 1” value [10]?
Its value is 0.0254 µg/mL.

And the “IC50 (µg/mL); Inhibition of native IL-17A mediated IL-6 production by NHDF; Experiment 2” value [10]?
The value was 0.0336 µg/mL.

And the “IC50 (µg/mL); Inhibition of native IL-17A mediated IL-6 production by NHDF; Experiment 3” value [10]?
The value was 0.0242 µg/mL.

What about the IC50 [11] of the same binder?
Its IC50 is 0.0426 µg/mL.
